Measured values reported in article PMC10325899.

Molecular target: fluorescein labeled GST-PKM1 (UniProt P14618)
Assay: MST; 40 nM fluorescein-labelled PKM1 with salt-washed ribosomes titrated from 0 to about 1.5 μM in PBS + 5 mM MgCl2, room temperature; three batches of ribosomes fitted globally to a 1:1 model; binding not fully saturated

Sequence of UniProt P14618 (P14618 other isoform, or with tags, fused parts or gaps): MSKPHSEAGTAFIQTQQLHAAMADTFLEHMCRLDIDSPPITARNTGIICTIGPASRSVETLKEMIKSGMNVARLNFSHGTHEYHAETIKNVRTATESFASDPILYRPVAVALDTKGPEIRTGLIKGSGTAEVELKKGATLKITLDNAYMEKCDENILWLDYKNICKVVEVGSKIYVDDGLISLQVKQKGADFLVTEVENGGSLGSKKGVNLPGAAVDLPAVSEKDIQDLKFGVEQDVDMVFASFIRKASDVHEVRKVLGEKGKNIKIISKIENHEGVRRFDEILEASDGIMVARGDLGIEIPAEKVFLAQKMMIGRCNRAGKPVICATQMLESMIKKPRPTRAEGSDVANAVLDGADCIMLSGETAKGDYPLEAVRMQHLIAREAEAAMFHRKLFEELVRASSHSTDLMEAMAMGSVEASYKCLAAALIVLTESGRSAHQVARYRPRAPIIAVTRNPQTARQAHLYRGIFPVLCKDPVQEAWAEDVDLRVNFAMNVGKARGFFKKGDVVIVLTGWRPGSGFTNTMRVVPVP

Kd: 900 nM
Substance: salt-washed ribosomes isolated from HEK293F cells (from UniProt P36578 1-427) (complex)
